Assay: yeast display, Sf9 membrane polyspecificity reagent, FACS + sequencing; frameworks hold sequencing errors
Method in brief: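 Nanobodies came from a synthetic yeast display library in Saccharomyces cerevisiae BJ5465, induced with galactose for 36–48 hours and stained for 1 hour at 4 °C with 10% biotinylated, detergent-solubilized Sf9 membrane reagent. Cells were enriched on streptavidin microbeads and then FACS-sorted, with low and high (top ~1%) gates set on anti-HA fluorescence for expression and streptavidin fluorescence for reagent binding. Each polyreactivity label reflects the gate a clone came from. Genes were amplified by colony PCR, sequenced by MiSeq 2 × 250 and filtered by CDR length.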

In the case of “QVQLVESGGGLVQAGGSLRLSCAASGRTLYYYTMGWYRPAPGKERELVAAIRWSTGSTYYADSVKGRFTISRDNAKNTVYLQMNSLKPEDTAVYYCNAYRYQWAQSTEYDYWGQGTQVTVSS”, the “polyreactivity (PSR sort gate)” value is reported as “high polyreactivity”.

In the case of “QVQLVESGGGLVQAGGSLRLSCAASGRTMNSNAKGSYRQAPGKEREFVAAITSGGSTNYADSVKGRFSLSRDNAKNTVYLQMTSLKPEDTAVYYCAVRGYWTIRCRRYYYWGHGTQVTVSS”, the “polyreactivity (PSR sort gate)” value is reported as “high polyreactivity”.

For “QVQLVESGGGLVQAGGSLRLSCAASGRTSAIYDMGWYRQAPGKERDLVAAIDYSDGSTYYADSVKGRFTISRDNAKYTVYLQMNSLKPEDTAVYYCAADYDAIYLWWGYDYWGQGTQLTVSS”, the “polyreactivity (PSR sort gate)” value was “low polyreactivity”.

With “QVQLVESGGGLVQAGGSLRLSCAASGRTSGFNTMGWYRPAPGKEREMVAAISFSGGSTYYADSVKGRFTISRDNAKNTVYLQMNSLKPEDTAVYYCNALYRYLYRSGDYWGQGTQVTVSS” the “polyreactivity (PSR sort gate)” value was “low polyreactivity”.

In the case of “QVQLVESGGGLVQAGGSLRLSCAASGRTSKVYAMGWYRQAPGTERELVAAITRGNTYYADSVKGRFTISRDNAKNTVYLQMNSLKPEDTAVYYCAADYRYWLSYFKKYDYWGQGTQVTVSS”, the “polyreactivity (PSR sort gate)” value is reported as “high polyreactivity”.

In the case of “QVQLVESGGGLVQAGGSLRLSCAASGRTSQEYAMGWYRQAPGKERELVAGITRRGGTTYYADSVKGRFTISRDNAKNTVYLQMNRLNPEDTAVYYCAKRYTHSFKYEYWGQCTQVTVSS”, the “polyreactivity (PSR sort gate)” value is reported as “high polyreactivity”.

For “QVQLVESGGGLVQAGGSLRLSCAASGRTSRDYAMGWYRQAPGKERELVAAIRWRGVSTYYADSVKGRFTISRDNAKNTVYLQMNSLKPEDTAVYYCAKRESVSTSAGKGAMDSWGQGTQVTVSS”, the “polyreactivity (PSR sort gate)” value was “high polyreactivity”.

With “QVQLVESGGGLVQAGGSLRLSCAASGRTSRFYAMGWYRQAPGKERELVARITTRGGSTYYADSVKGRFTISRDNAKNTVYLQMNSLKPEDTAVYYCNAERAGTYRYDYWGQGTQVTVSS” the “polyreactivity (PSR sort gate)” value was “high polyreactivity”.

With “QVQLVESGGGLVQAGGSLRLSCAASGRTSRLYAMGWYRQAPGKERELVATITRSAGDTYYADSVKGRFTISRDNAKNTVYLQMNSLKPEDTAVYYCNARAAKWSRYDYWGQGTQVTVSS” the “polyreactivity (PSR sort gate)” value was “high polyreactivity”.

In the case of “QVQLVESGGGLVQAGGSLRLSCAASGRTSRRNAMGWYRQAPGKERELVAATSGSGTSTYYADSVKGRFTISRDNAKNTVYLQMNSLKPEDTAVYYCNTDTSRRAVQYDYWGQGTQVTVSS”, the “polyreactivity (PSR sort gate)” value is reported as “high polyreactivity”.

In the case of “QVQLVESGGGLVQAGGSLRLSCAASGRTSRVNAMGWYRQAPGKERELVATITKSGGSTFYADSVKGRFTISRDNAKNTVYLQMNILKPEDTAVYYCNAGGVRATKGYDYWGQGTQVTVSS”, the “polyreactivity (PSR sort gate)” value is reported as “low polyreactivity”.

With “QVQLVESGGGLVQAGGSLRLSCAASGRTSRVNAMGWYRQAPGKERELVATITKSGGSTFYADSVKGRFTISRDNPKNTVYLQMNILKPEDTAVYYCNAGGVRATKGYDYWGQGTQVTVSS” the “polyreactivity (PSR sort gate)” value was “low polyreactivity”.

For “QVQLVESGGGLVQAGGSLRLSCAASGRTSRYALGWYRQAPGKERELVAAISRNGGTTSYADSVKGRFTISRDNAKNTVYLQMNSLKPEDTAVYYCNAYSAFVPPTRGYYWGQGTQVTVSS”, the “polyreactivity (PSR sort gate)” value was “high polyreactivity”.

For “QVQLVESGGGLVQAGGSLRLSCAASGRTSSVYARGWSRQAPGKEREWVAAITSSGGSTYYADSVKGRFTISRDNAKNTVYLQMNSLNPEDTAVYYCAAETYPVWGVAFYYWGQGTQVTVSS”, the “polyreactivity (PSR sort gate)” value was “high polyreactivity”.

With “QVQLVESGGGLVQAGGSLRLSCAASGRTSVSYAMGWYRQAPGKERELVASITSGGSTYYADSVKGRFTISRDNAKNTVYLQMNSLKPEDTAVYYCAARGRNVAGYKGGYWGQGTQVTVSS” the “polyreactivity (PSR sort gate)” value was “high polyreactivity”.

In the case of “QVQLVESGGGLVQAGGSLRLSCAASGRTSWPYAMGWYRQAPGKERELVAGISRNGGRTYYADSVKGRFTISRDNAKNTVYLQMNSLKPEDTAVYYCNAYPPSRHDYWGQGTQVTVSS”, the “polyreactivity (PSR sort gate)” value is reported as “high polyreactivity”.

In the case of “QVQLVESGGGLVQAGGSLRLSCAASGRTSWVNAMGWYRQAPGKERELVAAIVSGGTTKYADSVKGRFTISRDNAKNTVYLQMNSLKPEDTAVYYCAVRYSKRSVYTYGFNYWGQGTQVTVSS”, the “polyreactivity (PSR sort gate)” value is reported as “high polyreactivity”.

In the case of “QVQLVESGGGLVQAGGSLRLSCAASGRTSYGYAMGWYRQAPGKERELVAGISRSGSSTYYADSVKGRFTISRDNAKNTVYLQMNSMKPEDNAVYYCNAARPFNRVPRQTWKMGYWGQGTQVTVSS”, the “polyreactivity (PSR sort gate)” value is reported as “high polyreactivity”.

With “QVQLVESGGGLVQAGGSLRLSCAASGRTSYVYAMGWYRQAPGKERELVAAITSSGGSTYYADSVKGRFTISRDNAKNTVYLQMNSLKPEDTAVYYCAASRVRYSYGYPYYYWGQGTQVTVSS” the “polyreactivity (PSR sort gate)” value was “high polyreactivity”.

With “QVQLVESGGGLVQAGGSLRLSCAASGRTSYYAMGWYRQAPGKERELVAAINSGDSTTYADSVKGRFTISRDNAKNNVYLQMNSLKPEDTAVYYCATALYDWYSLEFDYWGQGTQVTVSS” the “polyreactivity (PSR sort gate)” value was “low polyreactivity”.

With “QVQLVESGGGLVQAGGSLRLSCAASGRTSYYAMGWYRQAPGKETELVAAINSGDSPTDADSVKGRFTISRDNAKNTVYLQMNTQTPEDTAVYYCATALYDWYSLEFDYWGQGTQVTVSS” the “polyreactivity (PSR sort gate)” value was “low polyreactivity”.

For “QVQLVESGGGLVQAGGSLRLSCAASGRTSYYNTMGWYRPAPGKERELVAASTGRGDSTYYADSVKGRFTISRDNAKKTGYLQMNSLKPEDTAVYYCAADELHLLYRVSKFVDYNHWGQGTQVTVSS”, the “polyreactivity (PSR sort gate)” value was “low polyreactivity”.

For “QVQLVESGGGLVQAGGSLRLSCAASGRTVGGNAMGWYRQAPGKERELVAAINRSGGTTYYADSVKGRFTISRDNAKNTVYLQMNSLKPEDTAVYYCAARRTVSATRMGYWGQGTQVTVSS”, the “polyreactivity (PSR sort gate)” value was “high polyreactivity”.

For “QVQLVESGGGLVQAGGSLRLSCAASGRTVLVYTMGWYRQAPGKERELVAAISWSDGSTYYADSVKGRFTMSRDNAKNTVYLHMNSLKPEDTAVYYCAARTFSAFWRGGYDYWGQGTQVTVSS”, the “polyreactivity (PSR sort gate)” value was “low polyreactivity”.

With “QVQLVESGGGLVQAGGSLRLSCAASGRTVNAMGWYRQAPGKERELVAAINSGTSTYADSVKGRFTISRDNAKNTVYLQMNSLKPEDTAVYYCAKTYFWPFHGRFVGYDYWGQGTQVTVSS” the “polyreactivity (PSR sort gate)” value was “low polyreactivity”.

For “QVQLVESGGGLVQAGGSLRLSCAASGRTVSSNAMGWYRQAPGKERELVASISFRGGRTYYADSVKGRFTISRDNAKNPVYLQMNSLKPEDTADYYCVSGTKRTGYGYWGQGTQVTVSS”, the “polyreactivity (PSR sort gate)” value was “high polyreactivity”.

In the case of “QVQLVESGGGLVQAGGSLRLSCAASGRTVWSNAMGWYRQAPGKEREFVASISRTGVNTYYADSVKGRFTISRDYAKNSVYLQMNSLKPEDTAVYYCNVYSARRGVGTLARYSEYDYWGQGTQVTVSS”, the “polyreactivity (PSR sort gate)” value is reported as “high polyreactivity”.

In the case of “QVQLVESGGGLVQAGGSLRLSCAASGRTVYSYAMGWYRQAPGKERELVAAISYTGASTFYADSVKGRFTISRDNAKNTVYLQMNSLKPEDTAVYYCAAESQPSYGETDEYWGQGTQVTVSS”, the “polyreactivity (PSR sort gate)” value is reported as “high polyreactivity”.

With “QVQLVESGGGLVQAGGSLRLSCAASGRTWFYAMGWYRQAPGKERELVAVISRSGASTNYADSVKGRFTISRDNAKNTVYLQMNSLKPEDTAVYYCAAGWRYRGGYWYPRLEYGYWGQGTQVTVSS” the “polyreactivity (PSR sort gate)” value was “high polyreactivity”.

In the case of “QVQLVESGGGLVQAGGSLRLSCAASGRTWSNAMGWYRQAPGKERELVAVITWDGVITYYADSVKGRFTISRDNAKNTVYLQMNSLKPEETAVYYCAATVYPGAGDYWGQGTQVTVSS”, the “polyreactivity (PSR sort gate)” value is reported as “high polyreactivity”.

For “QVQLVESGGGLVQAGGSLRLSCAASGRTYAYYAIGWYRQEPGKERELVAAISSGGSTYYADSVKGLFTISRDNAKNTVYLQMNSLKPEDTAVNYCATRDKQYYYWGQGTQVTLSS”, the “polyreactivity (PSR sort gate)” value was “high polyreactivity”.

From the nanobody polyreactivity screen of Harvey et al. (2022)
